From the DeepSol protein solubility set

assay: soluble on expression in E. coli; label from the status in PepcDB or PDB records

Sequence | soluble on expression in E. coli
MRGSHHHHHHGSDLGKKLLEAARAGQDDEVRILMANGADVNANDWFGITPLHLVVNNGHLEIIEVLLKYAADVNASDKSGWTPLHLAAYRGHLEIVEVLLKYGADVNAMDYQGYTPLHLAAEDGHLEIVEVLLKYGADVNAQDKFGKTAFDISIDNGNEDLAEILQKLN | soluble
MPKASLIIRERGLPKREVLLSPDRQWTIGRQLDCSIRLTDAYVSRLHAVINAFLFRGQPLYFIRDAHSRNGTFLNGFPLQHSTLLHHEDVIGVGTTLLVFYYPDMFREISLDECPLEHHHHHH | soluble
MGSDKIHHHHHHMMQLQVNATEIKTVYEQQLFNGKNFHVFIYNKTESVTGLHQHDYYEFTLVLTGRYYQEINGKRVLLERGDFVFIPVGSNHQSFYEFGATRILNVGISKRFFEQHYLPLLPFCFVASQVYRANSTFLTYIETVIASLNFRGNGLDEFIEVVTFYIINRLRHYREEQVYDDIPQWLKATVEIMHDKTQFGEHALENMVRLSAKSQEYLTRATRRYYSKTPMQIINEIRINFAKKQLEMTNYSVTDIAYEAGYSSPSLFIKTFKKMTSFTPNSYRKRLTEINE | not soluble
MLMPRQTTPPLSLPLVGGGRFDLSAETSTRWTLICFYRGLHCPICATYLKELEKRVADFAERGVACVAVSSDSEERAQAMAEKVGGGTLRFAYDLPLAEARDWGLYISTSRGKTSIGIEEPALFSEPGLFLVTPERTLYYGAVQTMPFVR | not soluble
MIVIKTYQEENASALWDVFFNTVRKVNRKDYSNEQVTAWAPESFDTDVWKNKMQSLNPFIAEIDGVIVGYSDLQDDGLIDHFFCHYQHQGKGVGSALMTHILELAKERKLPRVYSHVSITAKPFYERFGFTVVKPQCIDVRGEQLINYVMERQ | not soluble
MSLAGAVALSLFDELDVVFGPAALADALFYRHSPALRFELEGGKTYIAQFLQAVDRARTVLNVAFAGMEAVTAVLGVWGDDPPAQLWATAEAALHELGIKLPAPELSASELPTPETRVLHGEEDTQVLFAFTLSTARLPELLWGSLAADLGIFPQLRGRLWLAAPELGLLACPYDSRGMDMIGPNTARLAQLYHQFGDWLLDHDRARMAEMLSPGSKEGHHHHHH | soluble
MMEDVGKEMSKIIQKRDINERYEELVNEVLKDQDVQAFIQANRERLTDEDIRKSYAKLYEFVQEKKKFQVNDPAMIAPGYEPRLMLNFHYIDVTYVPTADLIARQKEEEIRNRVRAMDMPKDVREANLRDFDPSSQGRAKALAEAMQFLREYPATPKEFHKGLYLQGPFGVGKSFLLGAMANALAERGFTTTIVHFPTFTVEMKQAIGRDQVGEKLDAVKKSPILMIDDIGAESMTSWIRDDVLSVILQYRMQEQLVTFFSSNLDLKALEEHLTVTQRGEQEPLKARRIMERVRYLSKEITMTGNDRRNG | not soluble
MVGQIAKEMGLRAYIVGGVVRDILLGKEVWDVDFVVEGNAIELAKELARRHGVNVHPFPEFGTAHLKIGKLKLEFATARRETYPRPGAYPKVEPASLKEDLIRRDFTINAMAISVNLEDYGTLIDYFGGLRDLKDKVIRVLHPVSFIEDPVRILRALRFAGRLNFKLSRSTEKLLKQAVNLGLLKEAPRGRLINEIKLALREDRFLEILELYRKYRVLEEIIEGFQWNEKVLQKLYALRKVVDWHALEFSEERIDYGWLYLLILISNLDYERGKHFLEEMSAPSWVRETYKFMKFKLGSLKEELKKAKENYEVYRLLKPLHTSVLLLLMLEEELKEKIKLYLEKLRKVKLPKEKIEELKKQGLKGKELGERIEELKREIMNKIKLAAALE | soluble
MEQNLKNIKISIIIPTLNEVGNIQQTIATTQPSVNIEVIVVDGGSQDDTVAIAQSLGVKVISSSPGRAVQMNTGAALAAGEILLFLHADTRLPVGFDEMIRAALQQPGVVAGAFALRIDADLAGLRWVEKGVYWRSHFFQMPYGDQAIFMTKAVFEKVGGFSELPIMEDFELMRRLKHIGKITVLGVAVITSGRRWLQRGVFQTTLINQVVIIAYLLGVAPAQLHSWYRQGKFFRIGGRLLEHHHHHH | soluble
SMVFDSESNLDRFLRCTTPIVPAYSLPKTQIKNLNPLWYPLESQSVEYFRLGDFWDCFDEWSAYGAGVPIVSETGETLVQYYVPYLSAIQIFTSHSVINTLREETESGDSGSESCSEEWRWEGCSSSEEGFDHQEPLDRLGYSYLQYFERCTPYSRVPLMDKIKELGERYVGLRSLRSVDLSPASWMAVAWYPIYHIPMNRSIKDLSTCFLTYHTLSSSFQDVKREEEKERISVSAFGMATYKMQGRLWDNDRLLCFLSVADSWLKQLRVHHHDFTYFTTTTHYL | soluble
MAHHHHHHMWFGQLVIGPPGSGKSTYVAGVEHILRQINRKLVLINLDPFVENDVYKADVNISDLVDIKKVFCDLGLGPNGTLIYCMEYLLINFDWLEEKLKEHKDHYLLIDTPGQVELYTHNDALRKIVEKMTKMNCRLTSVHIVDSTLCSDNYKYVSALLLSLCSQIHLELPHVNVFSKIDLLKYFRDDLNFPLSYYVEAQNLEQLMLYARYQNESSSGSEGVNMGDDSPSGSLNDRSSCAQSAIKQAIRNDINSGRIKNVRKNYKKFSNKFLKLNEYICETVEDYNMINFALLDIQDKYSVLKLLKIIDGANGFRFSSIYSEYSLFDTYAEAIEYDCDDIQEKIVDVSDEEKEASLSGHPPHG | not soluble
MGSDKIHHHHHHLGIYVNPTGRSFELAINSEIFVDKSGLIKETNKCINTLQRYMCVSRPRRFGKSMAMDMLSAYYGRKTDAENLFKGLKISHDESYDRHINKYDVLKINMQDFLSVTHSVDDMLKMLCEYITDDFSIECKDIIFRDKSNIVRVMQDVFMSTGRPFVILIDEWDCLFREFTQDKEAQKKYLDFLRGWLKDKDYIALAYMTGILPIKKYGSHSALNMFTEYSMTDMGALAEYFGFTDDEVRELCDRYDMDFEEARAWYNGYKLVSHSKYGVKKYAMYSPKSVVEAMLKHKFGTYWNQTETYEALKVYIQMNMDGLKDAVIKMLAGESEKINTGTFENDMTSFATKDDVLTLLVHLGYLTYDSETEEVSIPNREVSKEYLNAISTMDWDEVSKSIKASQKLLESLWNMNGAAVADGIDKAHNEISILRYNDENSLSCTINLAFYSAREYYSIVRELPTGKGFADVCFIPRVSHLDKPAVVIELKYDKNVDGAISQIKSRQYVEALKDYKGNLLLVGINYDKKTKEHQCVIEKWKL | not soluble
MSLYRIDFNKLRFLICDDNPHMRRILRTLLHSFGTREVYEAEDGATALEMYSHYSPDILITDWEMPIFDGLELAQMIRQPEAKGNPYAPIIMLTAHSEKRRVTLARDAGVTEFLAKPISSKGLYQRILNVVASPREGHHHHHH | not soluble
MLDTDTITFVNCMHEYICEMDSYPKMNTEIINFESDALRDNYLGDEFRRQILVYTPDSMTDSYPLMIELAGTNWKPRLHNKFANIVEKLFSQGLKAVIANPNFSTKYNINQYINSPAVGNYEDFIITEIVPYLRERYRTGKTALFGKSSGGFGSYTLAVRHPEVINGFADHFGDSCFFYLYADDFAYTYNMLQKYKKSELIEHLLSKRPTDEEMRALNVFGSSAFYSPDLNDPSGFDLPFDENTGEIKENVWSRWKQLDPVKNVKQNLDALKKLDAVYLDVGDSDEYRLYIGSRSLHNKLLEGGIEHHYEEFHGGHFGNSERYLVSLPYLYDALRVKE | not soluble
MQAKVHVKKGDTVLVASGKYKGRVGKVKAVLPRKMAVIVEGVNLVKKAVRPSPKHPQGGFVEQEAPLHASKVRPICPACGKPTRVRKKFLEDGRKIRACAKCGGSLDVEELEHHHHHH | not soluble
MGSDKIHHHHHHMADPQTLDKIIDKTLDTVGKSREQIFEISEQSRNEYVSLEQELQEVRMKVAEIIDQSDRAEVHARFARNRLAEVSKQFHRYSNEEIRKVYEQANELQVKLALLQQEEQQLRDRRDAIERRLLNLKDTIERAEELVGQMTVVYNFLTGDLRQVGEALEDAREKQAFGLQIIQAQEEERRKLSREIHDGPAQMMANVLLRSELVERIYHDKGIDEALKEIRDLRKMVKSSLAEVRRIIYDLRPMALDDLGLIPTLKKYVKTFEEHTGIFVDFKHIGKGERFPEHVEIALFRLVQEALQNTRKHAKASHVHVKIEEQKTKFTVVIKDNGKGFDQTEKKEGSFGLVGMKERVNMLKGQLVIRTKPNDGTTIIISIPITTEE | not soluble
MLRSKKMVLVGRKAPDFTAAAVLGNGEIVDNFNFAEFTKGKKAVVFFYPLDFTFVCPSELIAFDNRYEDFLAKGVEVIGVSIDSQFSHNAWRNTAVENGGIGQVKYPLVADVKHEICKAYDVEHPEAGVAFRGSFLIDEEGMVRHQVVNDLPLGRNIDEMLRMVDALNFHQTHGEVCPAQWEAGKAGMEASPKGVAAFLSQYSADLK | not soluble
MGSDKIHHHHHHMLTTRKALYYLDKGKTKEAIHLLETCWNQKVTAENKRDIFTATVLLSDVLYQSGERFPEIYQKLMSILEEMQDLEAVDFEREKAKQIFAELDEYFSEVGTFFQGHSLAELWLKFDSENDYKDVYPTPQRVAAIEAELGYKLPKSYIYLMRHTQNGGIVSTGSVPTTEPSSWSENCVAITGIMGIGDCGVSTLNGMHNTNFWTEEWGYPDVGLAIADCPSAGHDMVFLDYRNCGKTGEPAVVHIDQEGDYKILKLADNFEEFILSLYREEY | not soluble
DKELFFINVYDITASKKAERELIESEEKFKQVVELSVDGIIIGTDSGKIVDCNGAACRIFGYDKEEILKLQVIDLFPGDLNIIAHDITSCNKAAGEKTVERINQKKDGTSFPAEVAARRVKLGN | not soluble
MGSDKIHHHHHHMQWETVIGLEIHAQLSTRSKIFSGASVAYGAEPNSQACAVDIALPGVLPVLNRQAIEYAIRFGLAIDATINSPSVFARKNYFYPDLPKGYQISQLEHPIVEGGHVAIQTGDQEKTIRLTRAHLEEDAGKSTHEEFHGMTGIDLNRAGTGLLEIVSEPDMRSSAEAVAYAKVLHSLVRWIGICDGNMQEGSFRCDANVSVRPAGSEALGTRCEIKNLNSFRFLERAIDYEVARQIDILESGGSITQETRLYDADRDETRTMRSKEDAHDYRYFPDPDLLPVIIPQEWIDQIREKLPELPKDKRNRYIQDFGLQTYDANILTAARELADYFEQMVSVLPGQSKLCANWIMGEVSARLNKEGLEIARSPISPEQLAGLLLRITDGTISGKIAKDVFDSMWQSNGDSADTIIDAKNLRQISDDSEIEKWVDDVLAANPQQVADYRAGKEKAFNSLVGQVMKTSKGKANPAQVNSVLKKRLTE | not soluble
SPDEIAQVRFLIVGRTGWIANMVAELLEQRGERYAFASFRLEQREACERELDALRPQRVLNVLGSLGVRTSTGARTTGARPSAVTYWAC | soluble
MGSDKIHHHHHHMNITASFRDASLVAFDFPEILTRISKIIDALKAHDDSLRYENWMLKGDNQEDATRYHVYDAAGIATPAALAVLREEFRNSKDFTYVAMWDGNLASDNGASISCHVGDKSLPDTLTLRIEGERWKAYAAISGIVSTMVTIFSPALVEVSFDEYAVKQVFDDKPGVGWMLYLPKVITQQQVPEARALIPVPAKGKQTGTIIISVTDAPFSVDNPEHVAIANRIEIRLVDQDLLPAYVDI | not soluble
